Substitutions are numbered along the chain they refer to.
B1: 107F11B11 (antibody, V domains shown)
VH: EVQLQQSGAEFVKPGASVKLSCTASGFNIEDTYMHWVKQRPEQGLEWIGMIDPANGKTKYGPRFQDKATVTADTSSNTANLQLSSLTSEDTAVYYCADGIGYYVGAMDYWGQGTSVTVSS
VL: DIQMNQSPSSLSASLGDTITITCHASQNINVWLSWYQQKPGNIPKLLIYKASNLHTGVPSRFSGSGSGTGFTLTISSLQPEDIATYYCQQGHSYPYTFGGGTKLEIK
notes: purified murine anti-CD47 hybridoma antibody; same VH and VL as 107F11C4 and 107F11F10; also called 07-107F11B11
B2: 98E2E12 (antibody, V domains shown)
VH: QVQLQQSGPQLVRPGASVKISCKASGYSFTNHWMHWMKQRPGQGLEWIGMIDPSDSETRLNQQFKDKATLTVDKSSSTAYMQLSSPTSEDSAVFYCARLGRYYFDYWGQGTTLTVSS
VL: NIVMTQSPKSMSVSVGERVTLSCRASDIVGTYVSWYQQKPEQSPKLLIYGASNRYTGVPDRFTGSRSATDFSLTISNVQAEDLADYLCGQSYDSPYTFGGGTKLEIK
notes: purified murine anti-CD47 hybridoma antibody; same VH and VL as 98E2E7; also called 04-98E2E12
B3: 98E2E7 (antibody, V domains shown)
VH: B2 VH
VL: B2 VL
notes: purified murine anti-CD47 hybridoma antibody; same VH and VL as 98E2E12; also called 03-98E2E7
B4: 108C10F5 (antibody, V domains shown)
VH: QMQLQQSGPQLVRPGASVKISCKTSGYSFTHHWIHWMKQRPGQGLEWIGMIDPSDSETRLSQKFKDKATLTVDASSSTAYMQLNSPTSEDSALYFCARLGRYYFDYWGQGTTLTVSS
VL: NIVMTQSPRSMSMSVGERVTLSCKASENVGTYISWYQQKPDQSPKLLIYGASNRYTGVPDRFTGSGSGTDFTLTISTVQAEDLADYHCGESYGHLYTFGGGTKLEIK
notes: purified murine anti-CD47 hybridoma antibody; separate subclone with its own curves; same VH and VL as 108C10A6; also called 09-108C10F5
B5: 98G5F11 (antibody, V domains shown)
VH: B2 VH with H32Y, F94Y, Y106F
VL: B2 VL with D27E, Y55F
notes: purified murine anti-CD47 hybridoma antibody; same VH and VL as 98G5F6; also called 06-98G5F11
B6: 112E5F2 (antibody, V domains shown)
VH: B2 VH with H32N, K65R, S75T, F94Y, Q109L
VL: B2 VL with L21M, S22N, D27E, S52F, A68G, T74N
notes: purified murine anti-CD47 hybridoma antibody; same VH and VL as 112E5D9 and 112E5H7; also called 11-112E5F2
B7: 108VH4.M4_VL1.M1-hIgG1 (antibody)
heavy: not shown
light: EIVLTQSPATLSLSPGERATLSCRASENVGTYISWYQQKPGQAPRLLIYGASNRYTGIPARFSGSGSGTDFTLTISSLEPEDFAVYYCGESYGHLYTFGGGTKVEIKRTVAAPSVFIFPPSDEQLKSGTASVVCLLNNFYPREAKVQWKVDNALQSGNSQESVTEQDSKDSTYSLSSTLTLSKADYEKHKVYACEVTHQGLSSPVTKSFNRGEC
notes: Humanized 108C10A6, human IgG1 with kappa light chain; also called 108VH4.M4_VL1.M1-hlgG1; 108VH4.M4_VL1.M1-hIgG1-Ka
B8: 108VH4.M4_VL1.M1-hIgG2 (antibody)
heavy: EVQLVQSGAEVKKPGSSVKVSCKASGYSFTHHWIHWVRQAPGQGLEWMGMIDASDSETRLSQKFKDRVTITADKSTSTAYMELSSLRSEDTAVYYCARLGRYYFDYWGQGTTVTVSSASTKGPSVFPLAPCSRSTSESTAALGCLVKDYFPEPVTVSWNSGALTSGVHTFPAVLQSSGLYSLSSVVTVPSSNFGTQTYTCNVDHKPSNTKVDKTVERKCCVECPPCPAPPVAGPSVFLFPPKPKDTLMISRTPEVTCVVVDVSHEDPEVQFNWYVDGVEVHNAKTKPREEQFNSTFRVVSVLTVVHQDWLNGKEYKCKVSNKGLPAPIEKTISKTKGQPREPQVYTLPPSREEMTKNQVSLTCLVKGFYPSDIAVEWESNGQPENNYKTTPPMLDSDGSFFLYSKLTVDKSRWQQGNVFSCSVMHEALHNHYTQKSLSLSPGK
light: B7 light
notes: Humanized 108C10A6, human IgG2 with kappa light chain; also called 108VH4.M4_VL1.M1-hlgG2; 108VH4.M4_VL1.M1-hIgG2-Ka
B9: 108C10A6 (antibody, V domains shown)
VH: B4 VH
VL: B4 VL
notes: also called murine anti-CD47 antibody 108C10A6; 108C10A6/108C10F5
B10: 112E5D9 (antibody, V domains shown)
VH: B2 VH with H32N, K65R, S75T, F94Y, Q109L
VL: B2 VL with L21M, S22N, D27E, S52F, A68G, T74N
notes: purified murine anti-CD47 hybridoma antibody; same VH and VL as 112E5F2 and 112E5H7; also called 10-112E5D9
B11: 112E5H7 (antibody, V domains shown)
VH: B2 VH with H32N, K65R, S75T, F94Y, Q109L
VL: B2 VL with L21M, S22N, D27E, S52F, A68G, T74N
notes: purified murine anti-CD47 hybridoma antibody; same VH and VL as 112E5D9 and 112E5F2; also called 12-112E5H7
B12: 55F2C4 (antibody, V domains shown)
VH: B2 VH with H32Y, T71A, F94Y
VL: B2 VL with S12Y, S22I, D27E
notes: also called 01-55F2C4
B13: 107F11C4 (antibody, V domains shown)
VH: B1 VH
VL: B1 VL
notes: purified murine anti-CD47 hybridoma antibody; same VH and VL as 107F11B11 and 107F11F10
B14: 98G5F6 (antibody, V domains shown)
VH: B2 VH with H32Y, F94Y, Y106F
VL: B2 VL with D27E, Y55F
notes: purified murine anti-CD47 hybridoma antibody; same VH and VL as 98G5F11; also called 05-98G5F6

These binders were tested against T1, cynomolgus monkey CD47 on CHO-K1 cells (cynomolgus monkey, UniProt A0A5F8AK49 19-323 (rhesus entry)) (assay: flow cytometry on CHO-K1/cyno CD47 cells).
T1 construct: whole, on cells; also called CHO-K1/cyno CD47; CHO-K1/cynoCD47
Protocol: (§1) Briefly, binding to cell-expressed cyno CD47 was evaluated on cynomolgus monkey CD47 over-expressing CHO cells. Anti-CD47 antibody dilution series was prepared in FACS buffer. CHO-K1/cynomolgus monkey CD47 cell were transferred to a 96-well U-bottom plate and add CD47 antibody dilution. After 30 minutes incubation at 4° C., cells were washed twice with FACS buffer. […] The cells were washed twice with wash buffer, and then analyzed for binding by using FACSCalibur (BD Bioscience, San Jose, Calif.) and Flowjo software.

| EC50 (read off the curve) | Binder |
| --- | --- |
| ~1 nM | B1 |
| ~2 nM | B2 |
| ~3 nM | B3 |

The binders below were run against T2, human CD47 on cells (human, UniProt Q08722 19-323) (assay: flow cytometry on CHO-K1/huCD47 cells; x axis Log(nM)).
T2 construct: also called CHO-K1/huCD47; human CD47 over-expressed in CHO-K1 cells
Protocol: (§2) Binding to cell-expressed human CD47 was evaluated on human CD47 over-expressing CHO cells (GenScript, Cat #M00581). Anti-CD47 antibody dilution series was prepared in FACS buffer. CHO-K1/human CD47 cells were transferred to a 96-well U-bottom plate and anti-CD47 antibody dilution was added. […] The cells were then washed twice with wash buffer. Cells were analyzed for binding by FACSCalibur (BD Bioscience, San Jose, Calif.) and Flowjo software.

| EC50 (read off the curve) | Binder |
| --- | --- |
| ~5 nM | B4 |
| ~10 nM | B5 |
| ~7 nM | B3 |

The binders below were run against T3, CD47 protein (assay: ELISA on CD47 protein; x axis is log10 of mAb (ng/ml)).
T3 construct: also called CD47 (ELISA antigen); not shown: The carrier of the coated recombinant protein (an Fc tag as in CD47-Fc, or a His tag as in CD47-His)

| EC50 (read off the curve) | Binder |
| --- | --- |
| ~5 ng/mL | B1 |
| ~9 ng/mL | B5 |
| ~2 ng/mL | B6 |

The binders below were run against T2, human CD47 on cells (assay: flow cytometry on red blood cells; unit taken from the axis).

| EC50 | Binder |
| --- | --- |
| 2.62 nM | B7 |
| 5.51 nM | B8 |

What follows are binders tested against T2, human CD47 on cells (assay: flow cytometry on CHO-K1/huCD47 cells; unit taken from the axis).
Protocol: as §2

| EC50 | Binder |
| --- | --- |
| 0.299 nM | B7 |
| 1.4 nM | B8 |

What follows are binders tested against T2, human CD47 on cells (assay: flow cytometry on human red blood cells; unit taken from the axis).

| EC50 | Binder |
| --- | --- |
| 55.8 ng/mL | B9 |
| 9.63 ng/mL | B2 |

Each binder was assayed against T1, cynomolgus monkey CD47 on CHO-K1 cells (assay: flow cytometry on CHO-K1/cynoCD47 cells; unit taken from the axis).
Protocol: as §1

| EC50 | Binder |
| --- | --- |
| 0.262 nM | B7 |
| 1.31 nM | B8 |

The binders below were run against T1, cynomolgus monkey CD47 on CHO-K1 cells (assay: flow cytometry on CHO-K1/cyno CD47 cells; unit taken from the axis).
Protocol: as §1

| EC50 | Binder |
| --- | --- |
| 2.03 nM | B9 |
| 2.01 nM | B4 |
| 1.45 nM | B10 |
| 1.53 nM | B11 |
| 5.75 nM | B12 |
| 1.81 nM | B6 |

Biological target: T1, cynomolgus monkey CD47 on CHO-K1 cells
Assay: as above
Remark: another data set of the same source
Protocol: as §1

| EC50 | Binder |
| --- | --- |
| 1.13 nM | B13 |

What follows are binders tested against T4, human CD47-His protein (human, UniProt Q08722 19-139, limits assumed) (assay: SPR (Biacore T200), antibody captured, human CD47-His as analyte, 1:1 model).
T4 construct: It includes the signal peptide and the membrane-spanning region, which a soluble protein would lack; not shown: His tag

| Kd | koff | kon | Binder |
| --- | --- | --- | --- |
| 1.4 nM | 0.00043 s⁻¹ | 310000 M⁻¹ s⁻¹ | B7 |
| 1.5 nM | 0.00044 s⁻¹ | 290000 M⁻¹ s⁻¹ | B8 |
| 0.74 nM | 0.00032 s⁻¹ | 430000 M⁻¹ s⁻¹ | B9 |

Each binder was assayed against T2, human CD47 on cells (assay: flow cytometry, blocking of human SIRPα binding to CHO-K1/huCD47 cells).
Protocol: After 30 minutes incubation at 4° C., cells were washed twice with FACS buffer.

| IC50 (read off the curve) | Binder |
| --- | --- |
| ~2 nM | B1 |
| ~1 nM | B9 |
| ~4 nM | B10 |
| ~5 nM | B12 |

Biological target: T1, cynomolgus monkey CD47 on CHO-K1 cells
Assay: flow cytometry on CHO-K1/cyno CD47 cells; unit taken from the axis
Remark: another data set of the same source
Protocol: as §1

| EC50 | Binder |
| --- | --- |
| 1.13 nM | B13 |

Each binder was assayed against T2, human CD47 on cells (assay: flow cytometry on CHO-K1/huCD47 cells; x axis Log(nM), unit taken from the axis).
Protocol: as §2

| EC50 | Binder |
| --- | --- |
| 8.59 nM | B9 |
| 3.48 nM | B14 |
| 3.47 nM | B10 |
| 8.21 nM | B2 |
| 52.5 nM | B12 |
| 3.15 nM | B6 |

What follows are binders tested against T3, CD47 protein (assay: ELISA on CD47 protein; x axis is log10 of mAb (ng/ml), unit taken from the axis).

| EC50 | Binder |
| --- | --- |
| 62.1 ng/mL | B9 |
| 23.4 ng/mL | B4 |
| 3.53 ng/mL | B14 |
| 4.77 ng/mL | B10 |
| 9.81 ng/mL | B11 |
| 2.59 ng/mL | B2 |
| 1.39 ng/mL | B12 |
| 3.78 ng/mL | B3 |

Each binder was assayed against T2, human CD47 on cells (assay: flow cytometry, blocking of human SIRPα binding to CHO-K1/huCD47 cells; the box on the sheet is labelled EC50; unit taken from the axis).

| IC50 | Binder |
| --- | --- |
| 1.07 nM | B13 |
| 6.97 nM | B14 |
| 3.4 nM | B11 |
| 3.74 nM | B2 |
| 2.98 nM | B6 |

Biological target: T2, human CD47 on cells
Assay: as above
Remark: another data set of the same source

| IC50 | Binder |
| --- | --- |
| 0.911 nM | B7 |
| 1.87 nM | B8 |
